One molecule from article PMC6270943 (2014) can be followed below.

In this experiment the target is T1, antisense peptide IPPKYW.
T1 chain: IPPKYW
Nature of the experiment: tryptophan fluorescence titration.

A word on the Kd: it is the concentration at which binding is half-saturated. A low value points to tighter binding. With YGGFM [Met-enkephalin], the Kd is 19 µM.
